From patent publication US20160185865A1 (Dana-Farber, published 2016) come the findings set out here.

Test [1] addresses T1, human CC chemokine receptor 4 (CCR4) (human, UniProt P51679 1-360).
T1 construct: whole, on cells; also called hCCR4
T1 sequence (looked up): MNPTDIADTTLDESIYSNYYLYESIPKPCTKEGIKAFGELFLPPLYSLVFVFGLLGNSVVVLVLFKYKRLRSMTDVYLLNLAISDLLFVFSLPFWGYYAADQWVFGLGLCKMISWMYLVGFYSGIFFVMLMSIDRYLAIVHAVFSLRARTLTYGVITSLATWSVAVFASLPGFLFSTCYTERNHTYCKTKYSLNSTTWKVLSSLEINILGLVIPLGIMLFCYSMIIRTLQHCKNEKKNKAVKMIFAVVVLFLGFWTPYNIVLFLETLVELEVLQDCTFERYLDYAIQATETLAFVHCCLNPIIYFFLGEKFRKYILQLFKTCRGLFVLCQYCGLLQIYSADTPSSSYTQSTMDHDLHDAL
The test is described as follows: binding curve of FIG. 20B; cells not given.

Test [2] addresses T1, human CC chemokine receptor 4 (CCR4). Put plainly: FACS titration (GMFI), 0 to 100 µg/mL in two-fold steps; cells not named in the legend.
The target is the same in test [3]. The test is described as follows: FACS, CCR4+ Mac-1 cells, dose dependent binding curve.

Numbering of substitutions follows the chain as printed. In names and notes the source's numbering stands.

B1: KW0761 (humanized KM2760 antibody) (antibody, V domains shown)
VH: EVQLVESGGDLVQPGRSLRLSCAASGFIFSNYGMSWVRQAPGKGLEWVATISSASTYSYYPDSVKGRFTISRDNAKNSLYLQMNSLRVEDTALYYCGRHSDGNFAFGYWGQGTLVTVSS
VL: DVLMTQSPLSLPVTPGEPASISCRSSRNIVHINGDTYLEWYLQKPGQSPQLLIYKVSNRFSGVPDRFSGSGSGTDFTLKISRVEAEDVGVYYCFQGSLLPWTFGQGTKVEIK
As for B1, in test [1], the EC50 was determined as 2.19 nM.

B2: h1567 VL-CDR3 mutant M1 (H105Q) (Fc fusion, not shown: a dimerising Fc or GST)
scFv: QVQLVQSGAEVKKPGASVKVSCKASGYTFASYYMHWMRQAPGQGLEWIGWINPGNVNTKYNEKFKGRATLTVDTSTNTAYMELSSLRSEDTAVYYCARSTYYRPLDYWGQGTLVTVSSGGGGSGGGGSGGGGSDIVMTQSPDSLAVSLGERATINCKSSQSILYSSNQKNYLAWYQQKPGQSPKLLIYWASTRESGVPDRFSGSGSGTDFTLTISSLQAEDVAVYYCQQYLSSYTFGQGTKLEIK
B2: the 50% effective concentration (EC50 (read off the curve)) in test [2] is roughly 0.5 µg/mL.

B3: Antibody 2-3 scFv-Fc (Fc fusion, not shown: a dimerising Fc or GST)
scFv: B2 scFv with Y32A, Y33W, Q228H, L231M
notes: also called Ab2-3 scFv-Fc; Mab 2-3
For B3, it took 1.39 nM to reach a half-maximal effect in test [3] (EC50). In other words, the single-digit nanomolar range.

B4: mAb2-3 (Ab2-3IgG) (antibody, V domains shown)
VH: QVQLVQSGAEVKKPGASVKVSCKASGYTFASAWMHWMRQAPGQGLEWIGWINPGNVNTKYNEKFKGRATLTVDTSTNTAYMELSSLRSEDTAVYYCARSTYYRPLDYWGQGTLVTVSS
VL: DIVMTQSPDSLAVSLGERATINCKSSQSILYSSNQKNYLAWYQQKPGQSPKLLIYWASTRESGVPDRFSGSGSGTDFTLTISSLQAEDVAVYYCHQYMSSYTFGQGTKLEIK
notes: IgG form made by cloning VH and VL into the TCAE5.3 vector (human IgG1); also called APC-labeled mAb2-3
In the case of B4, in test [1], a half-maximal response (EC50) required 0.35 nM.
